From the supplement of paper PMC9732359
± gives the uncertainty stated by the source.

Assay: protein stability index of a GFP-peptide fusion (yeast GPS) (PSI 1-4); higher = more stable; sorted into four equal gates, so the index is relative within each strain
Method in brief: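 The protein stability index combines read frequencies across sorting gates, each weighted by its gate number and then summed. To obtain those frequencies, a pooled yeast library of GFP fusions to tiled 17-residue yeast protein peptides, on a plasmid also expressing Cherry, was grown to mid-log phase in leucine-free medium. The cells were sorted into four equal gates by GFP/Cherry ratio before plasmid amplification by PCR and Illumina sequencing.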

Sequence | protein stability index (doa10∆) | protein stability index (pdr5∆) | protein stability index (san1∆) | protein stability index (ubr1∆)
FKKDFEVNISSLDAREA [RPC40] | 2.07 ± 0.059 | 1.58 ± 0.067 | 1.98 ± 0.1 | 2.16 ± 0.092
ANCQRQLTEFWTELCQR [NNF1] | 3.09 ± 0.081 | 2.87 ± 0.08 | 3 ± 0.075 | 2.82 ± 0.099
VFALHKYKPTPLYVMDE [SMC4] | 2.6 ± 0.081 | 2.85 ± 0.12 | 3.09 ± 0.076 | 3.07 ± 0.056
KMFQDIRLSKILEDDFA [CDC53] | 2.94 ± 0.062 | 3.04 ± 0.088 | 2.62 ± 0.072 | 2.93 ± 0.063
ATEKKSSSPLAMSETLS [PRE8] | 2.33 ± 0.076 | 2.77 ± 0.068 | 2.44 ± 0.1 | 2.39 ± 0.055
VETNTTVLADEFIAHRL [RPB3] | 3.05 ± 0.058 | 3.18 ± 0.054 | 3.19 ± 0.04 | 3.22 ± 0.033
SLYIYYLIKLLGFEVKD [SIR2] | 2.32 ± 0.12 | 2.13 ± 0.13 | 2.31 ± 0.079 | 2.27 ± 0.15
ATIRETYEIICDQTKSV [RRP43] | 2.87 ± 0.06 | 3 ± 0.065 | 2.8 ± 0.063 | 2.98 ± 0.045
KKGVRVTLDITTLTIMR [RPT4] | 2.48 ± 0.093 | 2.08 ± 0.11 | 2.23 ± 0.079 | 2.56 ± 0.082
KKLDYVLALKVEDFLER [RPS9A] | 1.76 ± 0.092 | 2.73 ± 0.079 | 2.08 ± 0.067 | 2.72 ± 0.072
HARARGPRAVLTRQPTE [RET1] | 3.28 ± 0.11 | 3.31 ± 0.068 | 3.08 ± 0.065 | 3.26 ± 0.06
MSDEDNNYDDFMLSDDE [RRI2] |  | 3.58 ± 0.23 | 3.28 ± 0.25 | 
FVIGVIIGTFSDSYKVS [RRP40] | 1.43 ± 0.057 | 1.41 ± 0.068 | 2.04 ± 0.12 | 2.23 ± 0.078
LIEKVDDTAANNGDKDH [YIL149C/MLP2] | 3.09 ± 0.099 | 3.25 ± 0.084 | 2.99 ± 0.086 | 3.09 ± 0.065
QDKEKIDNLKDTLKENA [ITC1] | 2.87 ± 0.046 | 3.07 ± 0.055 | 3.02 ± 0.043 | 3.09 ± 0.04
QFTRFFLLVPSKQVQVS [ECM29] | 1.27 ± 0.075 | 1.18 ± 0.061 | 1.19 ± 0.11 | 1.21 ± 0.072
TILCTPTGGKAKLSEGT [RPS27A] | 2.83 ± 0.097 | 2.85 ± 0.1 | 3.12 ± 0.072 | 2.74 ± 0.056
ADINLEESIRESLQKRE [SIR3] | 3.4 ± 0.085 | 3.28 ± 0.088 | 3.09 ± 0.12 | 3.36 ± 0.062
SKATGAPSANQGDEALS [RTT102] | 3.28 ± 0.12 | 3.32 ± 0.1 | 3.13 ± 0.1 | 3.14 ± 0.24
LITSSARKELPIFDYIH [SIR3] | 2.16 ± 0.056 | 2.06 ± 0.061 | 1.92 ± 0.068 | 2.48 ± 0.048
TDGELDIEFINSLLTIV [RPC34] | 2.78 ± 0.095 | 2.68 ± 0.14 | 2.4 ± 0.092 | 2.81 ± 0.091
LKIYAQIEKKEIKKMII [YCG1] | 3.06 ± 0.059 | 2.8 ± 0.051 | 2.89 ± 0.057 | 3.01 ± 0.07
PKVSAGDSGISPEESKA [SIR4] | 3.44 ± 0.1 | 3.46 ± 0.13 | 2.98 ± 0.098 | 3.17 ± 0.059
VGSENVECTISILRKSS [SNF12] | 1.89 ± 0.042 | 2.23 ± 0.044 | 2.43 ± 0.044 | 2.11 ± 0.036
VDTSTELESMLEDLKNT [RRP6] | 3.56 ± 0.24 | 3.03 ± 0.14 | 3.46 ± 0.11 | 3.13 ± 0.054
NSKDHKKITLQLLDTSN [SIN4] | 3.07 ± 0.07 | 3.39 ± 0.078 | 3.04 ± 0.074 | 2.96 ± 0.053
IAACTGVPDDKWEQTYK [FAS1] | 1.63 ± 0.15 | 1.21 ± 0.23 |  | 1.31 ± 0.29

Sequence | protein stability index (doa10∆) | protein stability index (pdr5∆) | protein stability index (san1∆) | protein stability index (ubr1∆)
GTISKLENKENGLLNEI [SMC2] | 3.45 ± 0.29 | 3.28 ± 0.087 | 3.36 ± 0.1 | 3.35 ± 0.17
KRPRSRTLTAVHDKILE [RPS7A] | 2.06 ± 0.054 | 2.13 ± 0.052 | 2.25 ± 0.064 | 1.88 ± 0.041
DRQCMIMDELLSSIAER [DIB1] | 2.7 ± 0.066 | 2.78 ± 0.053 | 2.88 ± 0.061 | 2.68 ± 0.052
ASYLTPLLEAKKLVWPL [SSN2] | 2.13 ± 0.14 | 2.04 ± 0.066 | 2.86 ± 0.15 | 2.71 ± 0.084
GGESAYFFQLQIRSADE [RPC11] | 2.73 ± 0.06 | 2.88 ± 0.062 | 2.71 ± 0.06 | 3.22 ± 0.062
SNELIEHFSHFGHIMED [YDL088C/ASM4] | 3.33 ± 0.12 | 3.09 ± 0.065 | 2.94 ± 0.053 | 2.99 ± 0.045
EDVVAISSRTYGQRAVL [RPS0B] | 3.28 ± 0.12 | 3.03 ± 0.06 | 3.01 ± 0.087 | 3.1 ± 0.049
YKVDAEGKVTKLRRECS [RPS31] | 2.68 ± 0.12 | 2.92 ± 0.14 | 2.67 ± 0.12 | 3.22 ± 0.078
GQGYRKVGIWPYFDYIF [YJL039C/NUP192] | 3.37 ± 0.14 | 3.21 ± 0.12 | 3.03 ± 0.12 | 2.62 ± 0.17
LSTRELAGKVGSIRVHK [RPC53] | 1.61 ± 0.18 | 1.26 ± 0.11 |  | 
LLHERKLLNDLALENGE [NUT1] | 2.75 ± 0.06 | 2.66 ± 0.073 | 2.54 ± 0.083 | 2.84 ± 0.039
SSLNGTNAKIPQFDSTQ [SSN3] | 3.06 ± 0.08 | 3 ± 0.093 | 2.98 ± 0.067 | 2.97 ± 0.063
MESEEVPLTKRYQHLEK [PCI8] | 2.85 ± 0.075 | 3.07 ± 0.067 | 2.92 ± 0.048 | 3.14 ± 0.065
DIIVAIKIFELKLPADA [IRR1] | 1.54 ± 0.078 | 1.21 ± 0.071 | 1.59 ± 0.14 | 1.83 ± 0.052
DPLLAGLGETSGDNHTQ [RPT4] | 2.77 ± 0.26 | 3.43 ± 0.21 | 3.5 ± 0.19 | 3.25 ± 0.16
RTKSQVIEEDYDDEQNT [IRR1] | 2.4 ± 0.071 | 2.83 ± 0.15 | 2.38 ± 0.099 | 1.83 ± 0.16
TNSHLPAGKQVEISLVN [FAS1] | 3.48 ± 0.14 | 3.37 ± 0.13 | 3.36 ± 0.069 | 3.12 ± 0.084
SDNKKRSGSNAAASLPS [RPC82] | 2.89 ± 0.058 | 3.19 ± 0.06 | 2.86 ± 0.042 | 3 ± 0.038
NTYKRLVIGIFKRDLLR [YJL039C/NUP192] | 2.5 ± 0.082 | 1.58 ± 0.083 | 1.31 ± 0.13 | 1.59 ± 0.055
LEGTRVSLEERTKNLVS [SMC4] | 3.45 ± 0.09 | 3.42 ± 0.075 | 3.34 ± 0.048 | 3.35 ± 0.08
LLNDECTESTRENALYD [SNF2] | 3.39 ± 0.2 | 3.07 ± 0.15 | 3.31 ± 0.071 | 3.69 ± 0.15
YRFFKKISEDPVKALNE [SNF12] | 3.5 ± 0.19 | 3.68 ± 0.2 | 2.8 ± 0.23 | 3.52 ± 0.086
SNSNNNGNKDSSFNFNK [SWI1] | 3.04 ± 0.053 | 3.17 ± 0.043 | 3.13 ± 0.04 | 3.16 ± 0.04
SVTEIPLKLSGEGPFTV [YMR129W/POM152] | 2.96 ± 0.072 | 3.23 ± 0.079 | 2.78 ± 0.078 | 2.81 ± 0.16
GRLDRKIEFPLPSEDSR [RPT5] | 3.36 ± 0.15 | 2.91 ± 0.21 | 2.71 ± 0.24 | 3.56 ± 0.12
AYVAIEQVKDDGTSTEK [RPN8] | 2.48 ± 0.16 | 1.73 ± 0.13 | 3.23 ± 0.15 | 2.64 ± 0.085
